Source: patent US20200207835A1, “SRCP1-BASED THERAPY FOR DISEASES ASSOCIATED WITH PROTEIN AGGREGATION” (THE MEDICAL COLLEGE OF WISCONSIN, INC., priority 2017, published 2020)

How the values were obtained:
^GFPHtt^ex1Q74 [1] = target: T1, ^GFPHtt^ex1Q74 (Homo sapiens, UniProt P42858); assay: GFPHttex1Q74 aggregation in zebrafish spinal cord neurons; type: in vivo; design: encoding pEGFP huntingtin exon-1 with 23 (^GFPHtt^ex1Q23) or 74 (^GFPHtt^ex1Q74) glutamines; host or cells: zebrafish embryos injected with in vitro transcribed mRNA; spinal cord neurons imaged; details: zebrafish embryos injected with RNA
Description: To test the effect of ^RFPSRCP1 on ^GFPHtt^ex1Q74 aggregation in zebrafish, each plasmid was used for in vitro synthesis of mRNA (mMessage mMachine T7 transcription kit, ThermoFisher Scientific). Newly fertilized embryos were injected with either 200 pg mRNA each of ^RFPSRCP1 and ^GFPHtt^ex1Q74, or RFP alone and ^GFPHtt^ex1Q74. Embryos were developed until 54 hours post fertilization, at which time live specimens were anesthetized in Tricane, embedded in 1% low-melt agarose, and subjected to confocal microscopy. Spinal cord images were taken at 100 μm×100 μm and a scan depth of 50 μm. Single image planes from 488 nm and 568 nm excitation were collected. Images were then processed for threshold analysis using ImageJ and the total number puncta were scored.

[2] = system: wild-type or mutant α-synuclein; assay: α-synuclein levels in HEK293 cells (western blot); type: cell-based, human; details: HEK293, 48 hours, overexpression of SRCP1
Description: HEK 293 cells were transfected with either wild-type or mutant α-synuclein in the presence or absence of SRCP1. Cells were collected 48 hours later and analyzed by SDS-PAGE and western blot.

HD iPSC-derived neurons = assay: Neurite length in HD iPSC-derived neurons; type: cell-based, human; details: HD iPSC-derived neurons with 60 or 180 glutamines, overexpression of SRCP1
Description: (§1) iPSC transfections were performed with mixed cultures of astrocytes and neurons adhered to matrigel-coated coverslips, seeded at 2.6×10^4 cells/cm^2. iPSC transfections were performed using Lipofectamine 2000 according to the manufacturer's instructions and recommended DNA concentrations for a 24-well transfection.
(§2) Plated iPSC derived cultures of astrocytes and neurons were fixed with 4% paraformaldehyde in PBS for 20 minutes at room temperature, 3-5 days after transfection. Cells were permeabilized and blocked prior to antibody labeling. Nuclei were labeled with Hoechst nuclear dye. Primary antibodies used were rabbit anti-Tuj1 (Covance MRB-435P), chicken anti-Tuj1(Gene Tex, GTX85469) and mouse anti-GFAP (Cell Signaling, 3670). Images were taken using an upright Nikon fluorescent microscope with a 40× objective. The number of neural cells with GFP positive puncta was quantified using NIS Elements object quantification tool (Nikon) and neurite length was measured using NIS Elements length measurement tool (Nikon).
For control iPSCs, four biological replicates from two independent differentiations were analyzed and for HD iPSCs, four biological replicates were analyzed from four separate differentiations using two independent HD lines.

^GFPHtt^ex1Q74 [3] = target: T1, ^GFPHtt^ex1Q74; assay: GFPHttex1Q74 puncta in iPSC-derived neurons; type: cell-based; design: encoding pEGFP huntingtin exon-1 with 23 (^GFPHtt^ex1Q23) or 74 (^GFPHtt^ex1Q74) glutamines; host or cells: human iPSC-derived neurons (mixed cultures with astrocytes); details: co-expression
Description: as §1, §2

T1 sequence (P42858 with tags, fused parts or gaps): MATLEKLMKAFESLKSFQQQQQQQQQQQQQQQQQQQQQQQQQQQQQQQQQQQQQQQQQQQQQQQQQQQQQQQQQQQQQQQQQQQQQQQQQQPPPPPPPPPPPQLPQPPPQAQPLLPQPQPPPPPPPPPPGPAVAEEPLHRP

B1: SRCP1: Dictyostelium discoideum serine-rich chaperone protein 1 (SEQ ID NO:2), expressed in cells as RFP-tagged construct (protein)
chain: MTILSTFTSFSNPPKLNKSSFSSSTGSSLSMGSNSFAWGGGWGGFGGPKGGSFNVDIAGNLIWGVYGFIRGGVGLVKWRGLQKGCKQP
modifications: RFP tag; Dictyostelium discoideum AX4
**Q.** Which results are given for B1?
**A.** GFPHttex1Q74 puncta in spinal cord neurons (^GFPHtt^ex1Q74 [1]): significant reduction of ^GFPHtt^ex1Q74 puncta; α-synuclein levels [2]: results in a reduction of α-synuclein; neurite length (HD iPSC-derived neurons): significantly increased neurite length; GFPHttex1Q74 puncta (^GFPHtt^ex1Q74 [3]): dramatic decrease in ^GFPHtt^ex1Q74 puncta
